Data as given in patent publication US20140223597A1, “Mutated Hydroxyphenylpyruvate Dioxygenase, DNA Sequence and Isolation of Plants Which Are Tolerant To HPPD Inhibitor Herbicides” (Bayer CropScience AG, priority 2008, published 2014).

System: Arabidopsis thaliana HPPD
Assay: Assay for HPPD activity (4-HPP consumption, DNP photometric readout at 405 nm) in presence and absence of Tembotrione
Format: biochemical
Details: uninhibited enzyme activity set to 100%, 444 nM HPPD, 500 μM 4-HPP, 1 h room temperature
Description: HPPD produces homogentisate and CO2 from 4-HPP and O2. The enzyme is incubated with its substrate 4-HPP in the presence or absence of an inhibitor. L-ascorbic acid is present as a reductant to retain the active site iron in the ferrous form and Catalase is present to degrade toxic H2O2. After an incubation time of one hour, the reaction is stopped by addition of 2,4-Dinitrophenylhydrazine (DNP). DNP forms a hydrazone derivative with the remaining 4-HPP molecules in the assay mixture which appears in an amber-brown colour at an alkaline pH. The amount of unconsumed 4-HPP is measured photometrically at 405 nm.
For preparation of inhibitor stock solutions, Tembotrione (MW=440.82) and DKN (Mw=359.3) are dissolved in DMSO to a concentration of 10 mM. […] Further dilutions are made with ddH2O to obtain the inhibitor solutions used in the assay (5 μM, 10 μM and 20 μM). […] A 2% DMSO solution provides for half of the assay mixture in uninhibited reactions to normalize a possible inhibiting effect of DMSO.
The assay is designed for a HPPD concentration of 444 nM on a monomeric basis and a 4-HPP concentration of 500 μM. This corresponds to 44.4 pmol HPPD and 50 nmol 4-HPP in a 100 μL-assay mixture, resulting in an approximate 1000-fold excess of substrate in relation to the enzyme. The calculated theoretical molecular weight of an AtHPPD subunit is 49.515 kD which results in 2.2 μg HPPD per assay mixture. The calculated theoretical molecular weight of a PfHPPD subunit is 41.205 kD, resulting in 1.8 μg HPPD per assay mixture. The enzyme solution provides for one quarter of the assay mixture volume, so enzyme stock solutions are produced by diluting AtHPPD solutions to 88 μg*mL^−1 with 50 mM TRIS buffer; PfHPPD solutions are diluted to 72 μg*mL^−1.
The inhibitor concentrations (2.5 μM, 5 μM and 10 μM) provide for 5-fold, 10-fold and 20-fold excess of inhibitor compared to the amount of enzyme. A buffer/substrate solution is prepared which provides for one quarter of the assay mixture. 2.5 mL of buffer/substrate solution contain 1 mL 1 M TRIS buffer, 500 μL 10 mM 4-HPP solution, 500 μL 200 mM L-ascorbic acid solution, 13 μL Catalase solution and 487 μL ddH2O. The assay is carried out in Greiner F-bottom 96 well microplates and all reactions are carried out as triplicates. The controls are carried out sixfold per plate and contain either 25 μL 50 mM TRIS instead of HPPD solution (corresponding to 0% consumption of 4-HPP) or a buffer/substrate solution that contains 500 μL 1 M TRIS instead of 500 μL 10 mM 4-HPP (corresponding to 100% consumption of HPP). The reaction is started by addition of 25 μL HPPD solution to a mixture of 50 μL of the respective inhibitor solution or 50 μL 2% DMSO and 25 μL buffer/substrate solution. The reaction is allowed to proceed for 1 h at room temperature. The reaction is stopped and coloration of 4-HPP is induced by addition of 50 μL 0.04% DNP/3.8 N HCl solution. After 15 min, addition of 100 μL 5 N KOH leads to the colour shift of the hydrazone derivative. Photometric measurement with a BMG FLUOstar Galaxy microplate reader is carried out immediately at 405 nm and data obtained is used for analysis of HPPD activities in presence and absence of an inhibitor.

| Molecule | Relative activity (in percentage) of At HPPD mutants in presence of Tembotrione ([…] Tembotrione) [%] | Relative activity (in percentage) of At HPPD mutants in presence of Tembotrione (5 μM Tembotrione) | Relative activity (in percentage) of At HPPD mutants in presence of Tembotrione (10 μM Tembotrione) |
| --- | --- | --- | --- |
| Gly422 mutant Asn: Arabidopsis thaliana HPPD (SEQ ID NO 4) with Gly422 replaced by Asn, N-terminal His6-tag (protein, UniProt P93836 1-445, looked up, variant G422N, N-terminal His6-tag) 4-hydroxyphenylpyruvate …: MGHQNAAVSENQNHDDGAASSPGFKLVGFSKFVRKNPKSDKFKVKRFHHIEFWCGDATNVARRFSWGLGMRFSAKSDLSTGNMVHASYLLTSGDLRFLFTAPYSPSLSAGEIKPTTTASIPSFDHGSCRSFFSSHGLGVRAVAIEVEDAESAFSISVANGAIPSSPPIVLNEAVTIAEVKLYGDVVLRYVSYKAEDTEKSEFLPGFERVEDASSFPLDYGIRRLDHAVGNVPELGPALTYVAGFTGFHQFAEFTADDVGTAESGLNSAVLASNDEMVLLPINEPVHGTKRKSQIQTYLEHNEGAGLQHLALMSEDIFRTLREMRKRSSIGGFDFMPSPPPTYYQNLKKRVGDVLSDDQIKECEELGILVDRDDQGTLLQIFTKPLGDRPTIFIEIIQRVGCMMKDEEGKAYQSGGCGGFGKNNFSELFKSIEEYEKTLEAKQLVG | 39 | – | – |
| Gly422 mutant Val: Arabidopsis thaliana HPPD (SEQ ID NO 4) with Gly422 replaced by Val, N-terminal His6-tag (protein, UniProt P93836 1-445, looked up, variant G422V, N-terminal His6-tag) 4-hydroxyphenylpyruvate …: MGHQNAAVSENQNHDDGAASSPGFKLVGFSKFVRKNPKSDKFKVKRFHHIEFWCGDATNVARRFSWGLGMRFSAKSDLSTGNMVHASYLLTSGDLRFLFTAPYSPSLSAGEIKPTTTASIPSFDHGSCRSFFSSHGLGVRAVAIEVEDAESAFSISVANGAIPSSPPIVLNEAVTIAEVKLYGDVVLRYVSYKAEDTEKSEFLPGFERVEDASSFPLDYGIRRLDHAVGNVPELGPALTYVAGFTGFHQFAEFTADDVGTAESGLNSAVLASNDEMVLLPINEPVHGTKRKSQIQTYLEHNEGAGLQHLALMSEDIFRTLREMRKRSSIGGFDFMPSPPPTYYQNLKKRVGDVLSDDQIKECEELGILVDRDDQGTLLQIFTKPLGDRPTIFIEIIQRVGCMMKDEEGKAYQSGGCGGFGKVNFSELFKSIEEYEKTLEAKQLVG | 43 | – | – |
| Cys (protein, UniProt P93836 1-445, looked up, variant G422C) 4-hydroxyphenylpyruvate …: MGHQNAAVSENQNHDDGAASSPGFKLVGFSKFVRKNPKSDKFKVKRFHHIEFWCGDATNVARRFSWGLGMRFSAKSDLSTGNMVHASYLLTSGDLRFLFTAPYSPSLSAGEIKPTTTASIPSFDHGSCRSFFSSHGLGVRAVAIEVEDAESAFSISVANGAIPSSPPIVLNEAVTIAEVKLYGDVVLRYVSYKAEDTEKSEFLPGFERVEDASSFPLDYGIRRLDHAVGNVPELGPALTYVAGFTGFHQFAEFTADDVGTAESGLNSAVLASNDEMVLLPINEPVHGTKRKSQIQTYLEHNEGAGLQHLALMSEDIFRTLREMRKRSSIGGFDFMPSPPPTYYQNLKKRVGDVLSDDQIKECEELGILVDRDDQGTLLQIFTKPLGDRPTIFIEIIQRVGCMMKDEEGKAYQSGGCGGFGKCNFSELFKSIEEYEKTLEAKQLVG | 44 | 27% | 19% |
| Gly422 mutant His: Arabidopsis thaliana HPPD (SEQ ID NO 4) with Gly422 replaced by His, N-terminal His6-tag (protein, UniProt P93836 1-445, looked up, variant G422H, N-terminal His6-tag) 4-hydroxyphenylpyruvate …: MGHQNAAVSENQNHDDGAASSPGFKLVGFSKFVRKNPKSDKFKVKRFHHIEFWCGDATNVARRFSWGLGMRFSAKSDLSTGNMVHASYLLTSGDLRFLFTAPYSPSLSAGEIKPTTTASIPSFDHGSCRSFFSSHGLGVRAVAIEVEDAESAFSISVANGAIPSSPPIVLNEAVTIAEVKLYGDVVLRYVSYKAEDTEKSEFLPGFERVEDASSFPLDYGIRRLDHAVGNVPELGPALTYVAGFTGFHQFAEFTADDVGTAESGLNSAVLASNDEMVLLPINEPVHGTKRKSQIQTYLEHNEGAGLQHLALMSEDIFRTLREMRKRSSIGGFDFMPSPPPTYYQNLKKRVGDVLSDDQIKECEELGILVDRDDQGTLLQIFTKPLGDRPTIFIEIIQRVGCMMKDEEGKAYQSGGCGGFGKHNFSELFKSIEEYEKTLEAKQLVG | 51 | about 40% | about 40% |
| Asn (protein, UniProt P93836 1-445, looked up, variant G422N) 4-hydroxyphenylpyruvate …: MGHQNAAVSENQNHDDGAASSPGFKLVGFSKFVRKNPKSDKFKVKRFHHIEFWCGDATNVARRFSWGLGMRFSAKSDLSTGNMVHASYLLTSGDLRFLFTAPYSPSLSAGEIKPTTTASIPSFDHGSCRSFFSSHGLGVRAVAIEVEDAESAFSISVANGAIPSSPPIVLNEAVTIAEVKLYGDVVLRYVSYKAEDTEKSEFLPGFERVEDASSFPLDYGIRRLDHAVGNVPELGPALTYVAGFTGFHQFAEFTADDVGTAESGLNSAVLASNDEMVLLPINEPVHGTKRKSQIQTYLEHNEGAGLQHLALMSEDIFRTLREMRKRSSIGGFDFMPSPPPTYYQNLKKRVGDVLSDDQIKECEELGILVDRDDQGTLLQIFTKPLGDRPTIFIEIIQRVGCMMKDEEGKAYQSGGCGGFGKNNFSELFKSIEEYEKTLEAKQLVG | 39 | 26% | 15% |
| Ser (protein, UniProt P93836 1-445, looked up, variant G422S) 4-hydroxyphenylpyruvate …: MGHQNAAVSENQNHDDGAASSPGFKLVGFSKFVRKNPKSDKFKVKRFHHIEFWCGDATNVARRFSWGLGMRFSAKSDLSTGNMVHASYLLTSGDLRFLFTAPYSPSLSAGEIKPTTTASIPSFDHGSCRSFFSSHGLGVRAVAIEVEDAESAFSISVANGAIPSSPPIVLNEAVTIAEVKLYGDVVLRYVSYKAEDTEKSEFLPGFERVEDASSFPLDYGIRRLDHAVGNVPELGPALTYVAGFTGFHQFAEFTADDVGTAESGLNSAVLASNDEMVLLPINEPVHGTKRKSQIQTYLEHNEGAGLQHLALMSEDIFRTLREMRKRSSIGGFDFMPSPPPTYYQNLKKRVGDVLSDDQIKECEELGILVDRDDQGTLLQIFTKPLGDRPTIFIEIIQRVGCMMKDEEGKAYQSGGCGGFGKSNFSELFKSIEEYEKTLEAKQLVG | 18 | 4% | 0% |
| Gly422 mutant Cys: Arabidopsis thaliana HPPD (SEQ ID NO 4) with Gly422 replaced by Cys, N-terminal His6-tag (protein, UniProt P93836 1-445, looked up, variant G422C, N-terminal His6-tag) 4-hydroxyphenylpyruvate …: MGHQNAAVSENQNHDDGAASSPGFKLVGFSKFVRKNPKSDKFKVKRFHHIEFWCGDATNVARRFSWGLGMRFSAKSDLSTGNMVHASYLLTSGDLRFLFTAPYSPSLSAGEIKPTTTASIPSFDHGSCRSFFSSHGLGVRAVAIEVEDAESAFSISVANGAIPSSPPIVLNEAVTIAEVKLYGDVVLRYVSYKAEDTEKSEFLPGFERVEDASSFPLDYGIRRLDHAVGNVPELGPALTYVAGFTGFHQFAEFTADDVGTAESGLNSAVLASNDEMVLLPINEPVHGTKRKSQIQTYLEHNEGAGLQHLALMSEDIFRTLREMRKRSSIGGFDFMPSPPPTYYQNLKKRVGDVLSDDQIKECEELGILVDRDDQGTLLQIFTKPLGDRPTIFIEIIQRVGCMMKDEEGKAYQSGGCGGFGKCNFSELFKSIEEYEKTLEAKQLVG | 44 | – | – |
